{"source": "patent US6994987B1", "about": "“Process for producing tripeptides” (Calpis Co., Ltd., priority 1999, dated 2006)", "molecules": {"B1": {"name": "Papain: proteinase, Papaya Latex, Sigma Chemical Co. (protein, UniProt P00784 134-345, looked up)", "Papain": "IPEYVDWRQKGAVTPVKNQGSCGSCWAFSAVVTIEGIIKIRTGNLNEYSEQELLDCDRRSYGCNGGYPWSALQLVAQYGIHYRNTYPYEGVQRYCRSREKGPYAAKTDGVRQVQPYNEGALLYSIANQPVSVVLEAAGKDFQLYRGGIFVGPCGNKVDHAVAAVGYGPNYILIKNSWGTGWGENGYIRIKRGTGNSYGVCGLYTSSFYPVKN"}}, "key": {"[1]": {"system": "Aminopeptidase + Carboxypeptidase Y", "assay": "Reactivity of peptidase formulations against synthetic peptides: aminopeptidase A + carboxypeptidase Y", "assay_type": "biochemical", "conditions": "0.01 μg/ml, peptide 10 μg/ml, phosphate buffer pH 5.3, 37° C. 3 hours, HPLC", "procedure": "(§1) Peptides shown in Table 1 were chemically synthesized. […] All of these synthetic peptides were synthesized with the automatic peptide synthesizing machine PPSM-8 (manufactured by Shimadzu Corporation).\n(§2) Each synthetic peptide was dissolved at the concentration of 10 μg/ml in 100 mM phosphate buffer pH 5.3 as to Experiments 1-1 to 1-4, 1-10 to 1-12, 1-16 and 1-21, or in 50 mM Tris-HCl buffer pH 8.0 as to other Experiments. Each of various peptidase formulations shown in Table 1 was then added so that the concentration thereof became 0.01 μg/ml, and the reaction was performed at 37° C. for 3 hours. After the enzyme reaction, the mixture was analyzed by the reverse phase high performance liquid chromatography (HPLC). […] The fractions of the detected peak were collected and amino acid sequence analysis was performed by the automatic peptide analyzer model PPSQ-10 (manufactured by Shimadzu Corporation). […]"}, "[2]": {"system": "Leucine aminopeptidase, microsomal + Carboxypeptidase Y", "assay": "Reactivity of peptidase formulations against synthetic peptides: LM + carboxypeptidase Y", "assay_type": "biochemical", "conditions": "phosphate buffer pH 5.3, 37° C. 3 hours, HPLC", "procedure": "as §1, §2"}, "[3]": {"system": "Leucine aminopeptidase, cytosol + Carboxypeptidase Y", "assay": "Reactivity of peptidase formulations against synthetic peptides: LC + carboxypeptidase Y", "assay_type": "biochemical", "conditions": "phosphate buffer pH 5.3, 37° C. 3 hours, HPLC", "procedure": "as §1, §2"}, "[4]": {"system": "Aminipeptidase I + Carboxypeptidase Y", "assay": "Reactivity of peptidase formulations against synthetic peptides: aminopeptidase I + carboxypeptidase Y", "assay_type": "biochemical", "conditions": "phosphate buffer pH 5.3, 37° C. 3 hours, HPLC", "procedure": "as §1, §2"}, "Aminipeptidase I": {"biological_target": "T1, Aminipeptidase I (Streptomyces griseus subsp. griseus, UniProt P80561)", "T1 construct": "purchased Sigma Chemical Co", "T1 sequence (P80561 46-329)": "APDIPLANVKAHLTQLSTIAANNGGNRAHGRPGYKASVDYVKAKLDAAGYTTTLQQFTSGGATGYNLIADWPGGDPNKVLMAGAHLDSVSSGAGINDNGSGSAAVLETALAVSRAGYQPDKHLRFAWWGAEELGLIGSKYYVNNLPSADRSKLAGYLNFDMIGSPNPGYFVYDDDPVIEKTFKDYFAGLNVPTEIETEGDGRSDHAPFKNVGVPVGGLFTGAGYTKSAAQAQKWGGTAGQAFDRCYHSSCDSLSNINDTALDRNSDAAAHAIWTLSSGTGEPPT", "assay": "Reactivity of peptidase formulations against synthetic peptides: aminopeptidase I alone", "assay_type": "biochemical", "conditions": "no carboxypeptidase, Tris-HCl pH 8.0, 37° C. 3 hours, HPLC", "procedure": "as §1, §2"}, "Aminopeptidase": {"system": "Aminopeptidase", "assay": "Reactivity of peptidase formulations against synthetic peptides: aminopeptidase A alone", "assay_type": "biochemical", "conditions": "no carboxypeptidase, Tris-HCl pH 8.0, 37° C. 3 hours, HPLC", "procedure": "as §1, §2"}, "[5]": {"biological_target": "T2, Leucine aminopeptidase, cytosol (Sus scrofa, UniProt P28839)", "T2 construct": "purchased Sigma Chemical Co; host or cells: porcine kidney", "T2 sequence (P28839 1-519)": "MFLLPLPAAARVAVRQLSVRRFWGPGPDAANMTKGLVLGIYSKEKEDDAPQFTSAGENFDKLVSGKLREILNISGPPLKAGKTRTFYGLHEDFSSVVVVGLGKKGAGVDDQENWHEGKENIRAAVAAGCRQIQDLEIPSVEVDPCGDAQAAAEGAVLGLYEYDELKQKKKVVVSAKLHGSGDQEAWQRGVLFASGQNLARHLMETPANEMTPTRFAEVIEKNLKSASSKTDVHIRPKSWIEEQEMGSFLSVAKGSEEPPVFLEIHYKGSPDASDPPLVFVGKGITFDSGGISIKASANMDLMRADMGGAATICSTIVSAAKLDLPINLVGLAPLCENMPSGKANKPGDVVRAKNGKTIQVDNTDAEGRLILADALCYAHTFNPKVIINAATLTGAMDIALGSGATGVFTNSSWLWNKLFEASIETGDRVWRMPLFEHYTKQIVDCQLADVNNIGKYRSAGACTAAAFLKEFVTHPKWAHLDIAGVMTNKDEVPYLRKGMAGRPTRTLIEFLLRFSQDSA", "assay": "Reactivity of peptidase formulations against synthetic peptides: LC alone", "assay_type": "biochemical, porcine", "conditions": "no carboxypeptidase, Tris-HCl pH 8.0, 37° C. 3 hours, HPLC", "procedure": "as §1, §2"}, "[6]": {"biological_target": "T3, Leucine aminopeptidase, microsomal (Sus scrofa, UniProt P15145)", "T3 construct": "purchased Sigma Chemical Co; host or cells: porcine kidney", "T3 sequence (P15145 1-963)": "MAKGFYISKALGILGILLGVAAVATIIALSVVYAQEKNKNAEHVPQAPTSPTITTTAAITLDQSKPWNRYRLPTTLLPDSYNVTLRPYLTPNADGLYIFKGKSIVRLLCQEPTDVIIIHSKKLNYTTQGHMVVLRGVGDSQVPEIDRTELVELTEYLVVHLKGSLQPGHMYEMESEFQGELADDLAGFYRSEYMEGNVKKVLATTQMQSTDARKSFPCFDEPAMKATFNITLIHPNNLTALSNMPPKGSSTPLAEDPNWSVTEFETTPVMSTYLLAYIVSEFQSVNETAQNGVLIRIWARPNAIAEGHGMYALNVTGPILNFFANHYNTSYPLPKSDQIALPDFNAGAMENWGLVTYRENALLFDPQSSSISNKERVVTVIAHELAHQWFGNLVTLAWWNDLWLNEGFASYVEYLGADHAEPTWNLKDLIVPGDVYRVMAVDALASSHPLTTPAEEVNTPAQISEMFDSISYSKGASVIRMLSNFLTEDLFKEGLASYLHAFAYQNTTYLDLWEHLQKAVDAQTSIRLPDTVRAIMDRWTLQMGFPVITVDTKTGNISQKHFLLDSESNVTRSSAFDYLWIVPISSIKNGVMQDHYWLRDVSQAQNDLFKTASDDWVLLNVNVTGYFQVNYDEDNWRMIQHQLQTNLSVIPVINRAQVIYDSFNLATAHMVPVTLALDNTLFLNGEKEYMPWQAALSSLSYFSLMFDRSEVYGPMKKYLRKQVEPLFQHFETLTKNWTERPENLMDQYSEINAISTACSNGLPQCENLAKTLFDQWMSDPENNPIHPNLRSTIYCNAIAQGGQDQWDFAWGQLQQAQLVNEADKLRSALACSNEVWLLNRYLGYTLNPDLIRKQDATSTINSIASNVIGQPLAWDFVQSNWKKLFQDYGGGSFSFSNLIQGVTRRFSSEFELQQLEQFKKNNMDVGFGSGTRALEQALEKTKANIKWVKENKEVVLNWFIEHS", "assay": "Reactivity of peptidase formulations against synthetic peptides: LM alone", "assay_type": "biochemical, porcine", "conditions": "no carboxypeptidase, Tris-HCl pH 8.0, 37° C. 3 hours, HPLC", "procedure": "as §1, §2"}, "[7]": {"system": "synthetic peptide consisting of the 28 amino acids (SEQ ID NO: 28)", "assay": "Two step reaction of proteinase and fraction 4 on the 28 amino acid synthetic peptide", "assay_type": "biochemical", "conditions": "proteinase 0.1 μg/ml on 28-mer 10 μg/ml, pH 6.1, 37° C. 5 hours, heat inactivation, then fraction 4, HPLC", "procedure": "To 10 μg/ml of the synthetic peptide consisting of the 28 amino acids that is the same as the one used in Experiment 2 (in 100 mM phosphate buffer pH 6.1), each of the commercially available proteinase enzymes for food processing shown in Table 4 was added at 0.1 μg/ml. The mixture was reacted at 37° C. for 5 hours. After finishing the reaction, the reacted liquid was heated at 100° C. for 5 minutes for inactivating the proteinase, and then reacted with the fraction 4 obtained in Experiment 4."}, "[8]": {"system": "synthetic peptide consisting of 28 amino acids (SEQ ID NO: 28)", "assay": "Production of the intermediate peptides with proteinase from the 28 amino acid synthetic peptide", "assay_type": "biochemical", "conditions": "enzyme 0.1 μg/ml, 28-mer 10 μg/ml, phosphate buffer pH 6.1, 37° C. 5 hours; HPLC and sequence analysis", "from_the_text": "A peptide consisting of 28 amino acids and having a sequence identical with a part of casein sequence and containing the sequence Ile-Pro-Pro and Val-Pro-Pro therein was chemically synthesized by the automatic peptide synthesizer model […]. The sequence of the peptide synthesized is as follows: […](SEQ ID NO: 28)\nThis synthetic peptide was reacted with various commercially available proteinase formulations, seeking for a proteinase capable of producing a peptide containing the sequence Ile-Pro-Pro or Val-Pro-Pro therein but containing no Pro other than these sequences.\nThat is, 0.1 μg/ml of each enzyme was added to 10 μg/ml of the synthetic peptide (in 100 mM phosphate buffer pH 6.1). The mixture was reacted at 37° C. for 5 hours to obtain a reacted liquid. The reacted liquid was analyzed by the reverse phase high performance liquid chromatography (HPLC). The fractions of the detected peptide peaks were collected and amino acid sequence analysis was performed by the automatic peptide analyzer model PPSQ-10."}}, "data": [{"molecule": "Asn Ile Pro Pro Leu (NIPPL)", "values": [{"measurement": "Existence of IPP or VPP peaks", "setting": "[1]", "result": "IPP"}, {"measurement": "Existence of IPP or VPP peaks", "setting": "[2]", "result": "IPP"}, {"measurement": "Existence of IPP or VPP peaks", "setting": "[3]", "result": "IPP"}, {"measurement": "Existence of IPP or VPP peaks", "setting": "[4]", "result": "IPP"}]}, {"molecule": "Val Val Pro Pro (VVPP)", "values": [{"measurement": "Existence of IPP or VPP peaks", "setting": "Aminipeptidase I", "result": "VPP"}, {"measurement": "Existence of IPP or VPP peaks", "setting": "Aminopeptidase", "result": "VPP"}, {"measurement": "Existence of IPP or VPP peaks", "setting": "[5]", "result": "VPP"}, {"measurement": "Existence of IPP or VPP peaks", "setting": "[6]", "result": "VPP"}]}, {"molecule": "B1", "values": [{"measurement": "Production of the tripeptides Ile-Pro-Pro and Val-Pro-Pro", "setting": "[7]", "result": "Yes"}, {"measurement": "Production of the tripeptides Ile-Pro-Pro and Val-Pro-Pro", "setting": "[7]; listed as papain", "result": "can produce the tripeptides Ile-Pro-Pro and Val-Pro-Pro"}, {"measurement": "Peptides produced in the reaction mixture", "setting": "[8]", "result": "a peptide Val-Pro-Pro-Phe-Leu as the peptide containing the sequence Val-Pro-Pro, and peptides Asn-Ile-Pro-Pro-Leu-Thr and Ile-Pro-Pro-Leu-Thr"}]}]}
